The experiment has as its target CBX5^MBD chimera (CBX5 in which the chromodomain was replaced by the MeCP2 methyl-DNA binding domain) (UniProt P51608).

Here are results for 1 substance from article PMC11723951.

Substance “KMT5C heterochromatin retention domain (HRD), wild type, fluorescent fusion (domain or fragment)” had a chromocenter partition coefficient of the HRD in Suv39h1/2 null MEFs upon CBX5^MBD co-expression (1.33 without it; 11.54 in wild-type cells), live-cell imaging of 4.43.
